Data: patent US11325966

Legend:
Assay in all cases: cell-based or functional assay
92BR020 N332A (HIV-1) = molecular target: 92BR020 N332A (HIV-1)
92BR020 N386A (HIV-1) = molecular target: 92BR020 N386A (HIV-1)
[1] = molecular target: 92BR020 N301A + N332A (HIV-1)
[2] = molecular target: 92BR020 N156A + N332A (HIV-1)
[3] = molecular target: 92BR020 N136A + N332A (HIV-1)
JR-CSF N392A (HIV-1) = JR-CSF N392A (HIV-1) (UniProt P20871)
JR-CSF N332A (HIV-1) = JR-CSF N332A (HIV-1) (UniProt P20871)
JR-CSF N386A (HIV-1) = JR-CSF N386A (HIV-1) (UniProt P20871)
[4] = molecular target: BG505 (T332N) N156A (HIV-1)
BG505 (T332N) (HIV-1) = molecular target: BG505 (T332N) (HIV-1)
JR-CSF N362A (HIV-1) = JR-CSF N362A (HIV-1) (UniProt P20871)
JR-CSF H33OA (HIV-1) = JR-CSF H33OA (HIV-1) (UniProt P20871)
[5] = molecular target: BG505 (T332N) N301A (HIV-1)
JR-CSF N301A (HIV-1) = JR-CSF N301A (HIV-1) (UniProt P20871)
JR-CSF I326A (HIV-1) = JR-CSF I326A (HIV-1) (UniProt P20871)
JR-CSF G324A (HIV-1) = JR-CSF G324A (HIV-1) (UniProt P20871)
JR-CSF R327A (HIV-1) = JR-CSF R327A (HIV-1) (UniProt P20871)
92BR020 I326A (HIV-1) = molecular target: 92BR020 I326A (HIV-1)
92BR020 H33OA (HIV-1) = molecular target: 92BR020 H33OA (HIV-1)
92BR020 N392A (HIV-1) = molecular target: 92BR020 N392A (HIV-1)
92BR020 Q328A (HIV-1) = molecular target: 92BR020 Q328A (HIV-1)
92BR020 (HIV-1) = molecular target: 92BR020 (HIV-1)
92BR020 D325A (HIV-1) = molecular target: 92BR020 D325A (HIV-1)
[6] = molecular target: BG505 (T332N) N295A (HIV-1)
[7] = molecular target: BG505 (T332N) N137A (HIV-1)
92BR020 N136A (HIV-1) = molecular target: 92BR020 N136A (HIV-1)
92BR020 N301A (HIV-1) = molecular target: 92BR020 N301A (HIV-1)
92BR020 N156A (HIV-1) = molecular target: 92BR020 N156A (HIV-1)
JR-CSF Q328A (HIV-1) = JR-CSF Q328A (HIV-1) (UniProt P20871)
[8] = molecular target: BG505 (T332N) N392A (HIV-1)
JR-CSF (HIV-1) = JR-CSF (HIV-1) (UniProt P20871)
JR-CSF N295A (HIV-1) = JR-CSF N295A (HIV-1) (UniProt P20871)
JR-CSF N339A (HIV-1) = JR-CSF N339A (HIV-1) (UniProt P20871)
[9] = molecular target: BG505 (T332N) N386A (HIV-1)
92BR020 R327A (HIV-1) = molecular target: 92BR020 R327A (HIV-1)
JR-CSF D325A (HIV-1) = JR-CSF D325A (HIV-1) (UniProt P20871)
[10] = molecular target: 92BR020 N136A + N156A + N301A (HIV-1)
[11] = molecular target: 118-virus panel (Env of HIV-1 pseudoviruses)

354BG18 (antibody) was tested, and the IC50 in TZM-bl assay (92BR020 N332A (HIV-1)) was > 50 µg/mL, the IC50 in TZM-bl assay (92BR020 N386A (HIV-1)) was 0.003 µg/mL and the IC50 in TZM-bl assay [1] was > 50 µg/mL. The IC50 in TZM-bl assay [2] was > 50 µg/mL, the IC50 in TZM-bl assay [3] was > 50 µg/mL and the IC50 in TZM-bl assay (JR-CSF N392A (HIV-1)) was 0.002 µg/mL. For the same molecule, the IC50 in TZM-bl assay (JR-CSF N332A (HIV-1)) was > 50 µg/mL.

For control mAb 12A12 (antibody), the IC50 in TZM-bl assay (92BR020 N332A (HIV-1)) was 0.039 µg/mL, the IC50 in TZM-bl assay (JR-CSF N386A (HIV-1)) was 0.332 µg/mL and the IC50 in TZM-bl assay [4] was 0.024 µg/mL. The IC50 in TZM-bl assay (BG505 (T332N) (HIV-1)) was 0.03 µg/mL, the IC50 in TZM-bl assay (JR-CSF N362A (HIV-1)) was 0.267 µg/mL and the IC50 in TZM-bl assay (JR-CSF H33OA (HIV-1)) was 0.288 µg/mL. It also gave an IC50 in TZM-bl assay [5] of 0.027 µg/mL, an IC50 in TZM-bl assay (JR-CSF N301A (HIV-1)) of 0.01 µg/mL and an IC50 in TZM-bl assay (JR-CSF I326A (HIV-1)) of 0.278 µg/mL. For the same molecule, the IC50 in TZM-bl assay (JR-CSF G324A (HIV-1)) was 0.236 µg/mL, the IC50 in TZM-bl assay (JR-CSF R327A (HIV-1)) was 0.131 µg/mL and the IC50 in TZM-bl assay (92BR020 I326A (HIV-1)) was 0.011 µg/mL. The IC50 in TZM-bl assay (92BR020 H33OA (HIV-1)) was 0.073 µg/mL, the IC50 in TZM-bl assay (92BR020 N392A (HIV-1)) was 0.105 µg/mL and the IC50 in TZM-bl assay (92BR020 Q328A (HIV-1)) was 0.028 µg/mL. For the same molecule, the IC50 in TZM-bl assay (92BR020 (HIV-1)) was 0.05 µg/mL, the IC50 in TZM-bl assay (92BR020 N386A (HIV-1)) was 0.055 µg/mL and the IC50 in TZM-bl assay [1] was 0.007 µg/mL. It also gave an IC50 in TZM-bl assay (92BR020 D325A (HIV-1)) of 0.05 µg/mL, an IC50 in TZM-bl assay [6] of 0.044 µg/mL and an IC50 in TZM-bl assay [7] of 0.027 µg/mL. The IC50 in TZM-bl assay (92BR020 N136A (HIV-1)) was 0.027 µg/mL, the IC50 in TZM-bl assay (92BR020 N301A (HIV-1)) was 0.011 µg/mL and the IC50 in TZM-bl assay (92BR020 N156A (HIV-1)) was 0.035 µg/mL. It also gave an IC50 in TZM-bl assay (JR-CSF Q328A (HIV-1)) of 0.038 µg/mL, an IC50 in TZM-bl assay [8] of 0.012 µg/mL and an IC50 in TZM-bl assay [2] of 0.023 µg/mL. For the same molecule, the IC50 in TZM-bl assay (JR-CSF (HIV-1)) was 0.233 µg/mL, the IC50 in TZM-bl assay (JR-CSF N295A (HIV-1)) was 0.203 µg/mL and the IC50 in TZM-bl assay (JR-CSF N339A (HIV-1)) was 0.028 µg/mL. The IC50 in TZM-bl assay [9] was 0.03 µg/mL, the IC50 in TZM-bl assay (92BR020 R327A (HIV-1)) was 0.022 µg/mL and the IC50 in TZM-bl assay [3] was 0.025 µg/mL. It also gave an IC50 in TZM-bl assay (JR-CSF D325A (HIV-1)) of 0.203 µg/mL, an IC50 in TZM-bl assay (JR-CSF N392A (HIV-1)) of 0.23 µg/mL and an IC50 in TZM-bl assay (JR-CSF N332A (HIV-1)) of 0.24 µg/mL. It also gave an IC50 in TZM-bl assay [10] of 0.013 µg/mL.

B1: BG1 IgG (antibody, V domains shown)
VH: AEQLVESGGGLVPPGRSLRLSCSASGFYFPDYAMAWVRQAPGQGLQWVGFMRGWAYGGSAQFAAFAVGKFAISRDDGRNVVYLDVKNPTFEDTGVYFCAREQRNKDYRYGQEGFGYSYGMDVWGRGTTVVVST
VL: DIHMTQSPVSLSASVGDRVTITCRASHFIANYVNWYQQKPGKAPTLLIFESSTLQRGVPSRFSAYGDGTEFTLSINTLQPEDFASYICQQSHSPPVTFGAGTRVDQK
With B1 the geometric mean IC50 in TZM-bl assay [11] was 0.67 µg/mL.
